Our source for the activity (bps speed delta vs control) values is patent publication US20250382602.

Positions count from the first letter of the chain named.

Data set [1] deals with T1, Dda 1993 C114P C114P (Enterobacteria phage T4) (UniProt P32270).
T1 sequence: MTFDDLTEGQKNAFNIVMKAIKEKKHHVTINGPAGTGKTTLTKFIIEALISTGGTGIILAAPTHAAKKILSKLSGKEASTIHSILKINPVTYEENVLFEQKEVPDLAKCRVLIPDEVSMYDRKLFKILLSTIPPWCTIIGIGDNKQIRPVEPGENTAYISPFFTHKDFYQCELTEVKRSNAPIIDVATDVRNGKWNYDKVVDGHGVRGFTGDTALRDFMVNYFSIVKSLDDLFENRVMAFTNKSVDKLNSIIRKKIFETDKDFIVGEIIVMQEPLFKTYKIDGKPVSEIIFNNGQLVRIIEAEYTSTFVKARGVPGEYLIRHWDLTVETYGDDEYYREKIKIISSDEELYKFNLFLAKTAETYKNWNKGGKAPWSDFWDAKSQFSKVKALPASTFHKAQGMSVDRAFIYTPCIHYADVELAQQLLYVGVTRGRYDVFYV
Particulars: nanopore translocation; background mutations not given.

In data set [2] the target is T2, Dda 1993 C114T C114T (Enterobacteria phage T4) (UniProt P32270).
T2 sequence: T1 sequence with P114T
Particulars: nanopore translocation; background mutations not given.

In data set [3] the target is T3, Dda 1993 351Q 351Q (Enterobacteria phage T4) (UniProt P32270).
T3 sequence: T1 sequence with P114C, K351Q
The settings on record: nanopore translocation, FLO-MIN112; background mutations not given.

Data set [4] addresses T4, Dda 1993 354A 354A (Enterobacteria phage T4) (UniProt P32270).
T4 sequence: T1 sequence with P114C, L354A
The settings on record: nanopore translocation, FLO-MIN112; background mutations not given.

For data set [5], the target named is T5, Dda 1993 K358F K358F (Enterobacteria phage T4) (UniProt P32270).
T5 sequence: T1 sequence with P114C, K358F
Particulars: nanopore translocation, FLO-MIN112; background mutations not given.

In data set [6] the target is T6, Dda 1993 K358S K358S (Enterobacteria phage T4) (UniProt P32270).
T6 sequence: T1 sequence with P114C, K358S
The settings on record: nanopore translocation, FLO-MIN112; background mutations not given.

In the case of “barcoded 3.6 kb DNA analyte ligated to sequencing Y adaptor”, the activity (bps speed delta vs control) is 84.5 in data set [1]; -35.7 in data set [2]; -5.61 in data set [3]; 11.3 in data set [4]; -10.9 in data set [5]; 1.6 in data set [6].
